# Patent publication US20070185028A1, “Compositions and methods for treatment of protein misfolding and protein aggregation diseases” (priority 2004, published 2007)
# Key:
# [1] = as provided by manufacturer (Mimotopes); cited from earlier work
# [2] = target: T1, equine alcohol dehydrogenase (ADH) (Equus caballus, UniProt P00327); test: αB crystallin protein pin array with alcohol dehydrogenase; format: binding; settings: ADH as ligand in the pin array
# T1 construct: purchased Sigma-Aldrich, MO 05646
# T1 sequence (P00327 whole entry): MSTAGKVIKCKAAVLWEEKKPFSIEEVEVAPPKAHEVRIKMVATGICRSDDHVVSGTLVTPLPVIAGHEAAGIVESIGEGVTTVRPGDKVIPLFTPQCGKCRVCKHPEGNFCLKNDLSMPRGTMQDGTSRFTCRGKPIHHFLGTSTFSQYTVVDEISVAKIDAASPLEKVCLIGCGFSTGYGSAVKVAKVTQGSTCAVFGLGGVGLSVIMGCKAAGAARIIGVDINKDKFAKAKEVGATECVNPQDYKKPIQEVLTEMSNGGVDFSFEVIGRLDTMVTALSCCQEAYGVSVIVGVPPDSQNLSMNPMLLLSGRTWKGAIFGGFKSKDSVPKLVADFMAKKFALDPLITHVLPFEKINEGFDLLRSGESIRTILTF
# From the text: (§1) Synthesis of Pins, binding and detection of peptides binding to ligand proteins. The αB crystallin protein pin array was used to measure the interaction between peptides and chaperone target proteins including bovine βH crystallin, human γD crystallin, equine alcohol dehydrogenase (ADH) and porcine citrate synthase (CS) as described (FIG. 12). Ghosh and Clark, Protein Sci 14: 684-95, 2005.
# (§2) Refer to the methods section for detailed protocols. The absorbance corresponding to the blue coloration in each well was measured at λ=450 nm and plotted against the amino acid sequence of the corresponding peptide in that well (FIGS. 13 and 14). Wells containing peptides that have strong interactions with target proteins are dark blue and wells containing peptides that have weak or no interaction with target proteins are light blue or clear.
# (§3) The purity of the target proteins used in the pin array assays, bovine βH crystallin, human γD crystallin, equine alcohol dehydrogenase (ADH) and porcine citrate synthase (CS) were determined to be >90% by SDS-PAGE. In addition, primary antibodies for each target protein were specific to that target protein and consequently contaminating proteins that may bind to the peptides will not be detected. Eighty-four sequential and overlapping peptide fragments corresponding to residues 1-175 of human αB crystallin were synthesized employing a simultaneous peptide synthesis strategy developed by Geysen, called Multipin Peptide Synthesis (Mimotopes, San Diego, Calif.). Geysen, Southeast Asian J Trop Med Public Health 21: 523-33, 1990; Chin et al., J Org Chem 62: 538-539, 1997. Peptides were immobilized on derivatized polyethylene pins arranged in a microtiter ELISA plate format. Each peptide was eight amino acids in length and consecutive peptides were offset by two amino acids. All peptides were bound covalently to the surface of the plastic pins. The first peptide was 1MDIAIHHP8 and the last peptide was 168PAVTAAPK175 for human αB crystallin.
# (§4) Ghosh and Clark, Protein Sci 14: 684-95, 2005. […] The intensity of the blue color in the wells was measured at 450 nm using an ELISA plate-reader (BioTek, Winooski, Vt.). The intensity of the blue color (plotted on the X-axis) was a measure of the interaction between αB crystallin peptides (plotted on the Y-axis) and target proteins. To measure the effect of temperature on the interactions between interactive peptides and the target proteins, the target proteins were heated in a water-bath at 45° C. for fifteen minutes prior to use. Pin arrays are unable to differentiate between monomers, dimers or oligomers of target proteins that exist in solution. Instead, pin arrays are very sensitive detectors of interactions between individual peptides and the entire population (monomers, dimers or oligomers) of specific target proteins that may exist in solution under specific conditions. Each target protein was assayed two to five times. A single pin array was used for all experiments and no change in interactions was observed after more than thirty repetitions. The last three peptides of the protein pin array, 163REEKPAVT170, 165EKPAVTAA172, 167PAVTAAPK174, correspond to the epitope (163REEKPAVTAAPKK175) recognized by the primary antibody for human αB crystallin. A positive reaction is observed for these three peptides in the absence of human αB crystallin as the ligand due to direct binding of the anti-human αB crystallin antibody to these three peptides. The loss of efficiency for the pin array was measured using this assay. The loss of efficiency for the pin array was determined to be <5% by after more than 30 assays.
# The pattern of absorbance at k=450 nm when αB crystallin peptides were assayed with unheated and pre-heated ADH was similar to the absorbance pattern obtained with unheated and pre-heated βH/γD crystallin (FIG. 17). […]
# beta amyloid = beta amyloid (Homo sapiens, UniProt P05067); test: αB crystallin protein pin array, binding of beta amyloid; settings: immobilized 8-mer peptide; absorption at 450 nm
# From the text: αB Crystallin peptides that bind the target protein beta-amyloid were identified by screening an αB crystallin protein pin array, which provides a systematic method for evaluating interactions between peptides corresponding to residues 1-175 of human αB crystallin and selected target proteins in a parallel and simultaneous manner.
# Peptides were synthesized on derivatized polyethylene pins arranged in a microtiter plate format. Each peptide was 8 amino acids in length and consecutive peptides were offset by 2 amino acids. All peptides were covalently bonded to the surface plastic pins. The first immobilized peptide was 1MDIAIHHP8 and the last peptide was 168PAVTAAPK175 for the human αB crystallin.
# After synthesis, the pins were pre-coated at room temperature with 2% Bovine Serum Albumin (BSA), 0.1% Tween-20 and 0.1% Sodium azide in 10 mM phosphate buffered saline pH 7.2 (PBS) for 1 hr, and washed three times for 10 mins each with 10 mM PBS. To screen for binding to the peptides, fixed concentrations of the target protein beta amyloid was dissolved in 10 mM PBS, containing 0.05% Tween-20, added to each well and incubated for 1 hr at room temperature. The pin array was washed three times for 10 mins each with 10 mM PBS, containing 0.05% Tween-20. Monoclonal or polyclonal primary antibodies for the target protein beta amyloid was diluted into PBS buffer, added to each well and incubated for 1 hr at room temperature. Subsequently, the pin array was washed three times for 10 mins each with 10 mM PBS containing 0.05% Tween-20. Anti-rabbit horse-radish peroxidase conjugate secondary antibodies was diluted into PBS buffer, added to each well and incubated for 1 hr at room temperature. The pin array was washed three times for 10 mins each with 10 mM PBS containing 0.05% Tween-20. A chromogenic substrate of horse-radish peroxidase 3,3′,5,5′-Tetramethylbenzidine (TMB) (Pharmingen, San Diego, Calif.) which is colorless was added, and the reaction was carried out for 45 min.
# The reaction was stopped by adding 6N sulfuric acid, which changes the color from blue to yellow. The absorption at 450 nm was measured by an ELISA reader (BioTek, Winooski, Vt.).
# The pin array was regenerated by sonication in a water bath (VWR Aquasonic, West Chester, Pa.) with 100 mM PBS, containing 1% Sodium dodecyl sulfate (SDS) and 0.1% 2-Mercaptoethanol@60° C. for 10 mins. Next, the pin array was rinsed three times in deionized water, preheated to 60° C. for 30 secs each time, and shaken in water preheated at 60° C. for 30 min. The pin array was then washed with methanol at 60° C. for 15 secs and air-dried and stored @−20° C. for future use. Each target protein was assayed 2-5 times against the human αB crystallin protein pin array peptides to verify the reproducibility of the results. Peptides numbered 5, 7, 8, 9, 13, 19, 22, 23, 24, 27, 35, 38, 45, 51, 52, 56, 57, 61, 66, 71, 72, and 79 in Table 2 reproducibly tested positive in the protein pin assay.
# [3] = target: T2, porcine citrate synthase (CS) (Sus scrofa, UniProt P00889); test: αB crystallin protein pin array with citrate synthase; format: binding; settings: CS as target protein in the pin array
# T2 construct: purchased Roche Diagnostics, IN 103 381
# T2 sequence (P00889 28-464): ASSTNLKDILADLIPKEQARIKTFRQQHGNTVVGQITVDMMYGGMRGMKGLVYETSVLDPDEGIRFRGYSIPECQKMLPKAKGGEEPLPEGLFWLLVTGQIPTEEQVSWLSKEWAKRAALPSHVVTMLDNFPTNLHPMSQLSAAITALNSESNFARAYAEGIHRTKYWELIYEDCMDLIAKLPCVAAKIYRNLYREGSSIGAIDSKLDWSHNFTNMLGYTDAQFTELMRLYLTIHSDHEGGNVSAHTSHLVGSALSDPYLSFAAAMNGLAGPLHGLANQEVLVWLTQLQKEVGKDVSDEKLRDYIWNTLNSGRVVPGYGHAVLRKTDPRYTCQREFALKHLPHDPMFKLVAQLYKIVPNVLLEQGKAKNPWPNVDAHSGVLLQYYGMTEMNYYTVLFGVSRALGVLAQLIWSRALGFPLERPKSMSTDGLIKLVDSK
# From the text: as §1, §2, §3, §4
# The pattern of absorbance at λ=450 nm when αB crystallin peptides were assayed with unheated and pre-heated CS was similar to the absorbance pattern obtained with unheated and pre-heated βH/γD crystallin and ADH (FIG. 18). […]
# bovine βH crystallin = test: αB crystallin protein pin array with βH crystallin; format: binding; settings: unheated βH crystallin, 23° C.; similar maxima pre-heated 45° C.
# From the text: as §1, §2, §3, §4
# Protein pin arrays enabled the identification of interactive sequences necessary for the chaperone activity of human αB crystallin. Interactions between immobilized 8-mer human αB crystallin peptides and unheated and pre-heated βH crystallin, a natural protein constitute of lens cells, were measured as absorbances at λ=450 nm at 23° C. […]
# human γD crystallin = target: T3, human γD crystallin (Homo sapiens, UniProt P07320); test: αB crystallin protein pin array with γD crystallin; format: binding; settings: unheated γD crystallin; similar maxima pre-heated 45° C.
# T3 construct: made in house
# T3 sequence (P07320 1-174): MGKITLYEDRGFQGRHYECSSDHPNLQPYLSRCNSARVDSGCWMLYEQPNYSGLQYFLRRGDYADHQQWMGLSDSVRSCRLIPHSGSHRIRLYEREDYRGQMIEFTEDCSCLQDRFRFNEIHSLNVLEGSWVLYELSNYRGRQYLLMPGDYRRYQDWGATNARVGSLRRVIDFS
# From the text: as §1, §2, §3, §4
# When βH crystallin was replaced with γD crystallin, a native protein constituent of lens cytoplasm from the same gene family as the β crystallins, as the ligand in the pin array, twelve interactive sequences were identified (FIG. 14: striped bars). […]
Sequence,Hydrophobicity [1],"absorbance at 450 nm, interaction with ADH [2]",binding of beta amyloid in the protein pin assay (beta amyloid),"absorbance at 450 nm, interaction with CS [3]","absorbance at 450 nm, interaction with βH crystallin (bovine βH crystallin)","absorbance at 450 nm, interaction with γD crystallin (human γD crystallin)"
FFGEHLLE [Peptide 14],0.73,Maximum absorbances,,,,
FISREFHR [Peptide 57],0.35,,positive,absorbance maxima,Maximum absorbances,
FPFHSPSR [Peptide 8],0.51,,positive,absorbance maxima,,
FYLRPPSF [Peptide 24],0.83,,positive,absorbance maxima,Maximum absorbances,maximum absorbances
GVLTVNGP [Peptide 71],0.57,Maximum absorbances,positive,,Maximum absorbances,maximum absorbances
LFPTSTSL [Peptide 19],0.79,Maximum absorbances,positive,,,
LRAPSWFD [Peptide 28],0.62,,,absorbance maxima,,
LRPPSFLR [Peptide 25],0.57,Maximum absorbances,,,,
LTVNGPRK [Peptide 72],0.16,,positive,absorbance maxima,,
PFFPFHSP [Peptide 7],0.95,Maximum absorbances,positive,,,maximum absorbances
RLEKDRFS [Peptide 35],−0.12,Maximum absorbances,positive,,Maximum absorbances,
RTIPITRE [Peptide 79],0.27,Maximum absorbances,positive,absorbance maxima,Maximum absorbances,
SFLRAPSW [Peptide 27],0.71,,positive,,,maximum absorbances
SLSPFYLR [Peptide 22],0.72,Maximum absorbances,positive,absorbance maxima,,maximum absorbances
SREFHRKY [Peptide 58],−0.1,Maximum absorbances,,,,
